Data taken from US20050221433A1 (Regeneron, published 2005).

T1: recombinant human IL-18 (human, UniProt Q14116 37-193)
T1 sequence (looked up): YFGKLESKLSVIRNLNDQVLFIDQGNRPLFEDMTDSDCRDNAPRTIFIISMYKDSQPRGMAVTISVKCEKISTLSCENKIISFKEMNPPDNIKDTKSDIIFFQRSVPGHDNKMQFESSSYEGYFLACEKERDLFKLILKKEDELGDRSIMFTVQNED

B1: hIL18BPa (1-181) (C49S, C129S).His (receptor)
chain: TPVSQTTTAATASVRSTKDPSPSQPPVFPAAKQCPALEVTWPEVEVPLNGTLSLSCVACSRFPNFSILYWLGNGSFIEHLPGRLWEGSTSRERGSTGTQLSKALVLEQLTPALHSTNFSCVLVDPEQVVQRHVVLAQLWAGLRATLPPTQEALTGHHHHHHHH
B2: hIL18BPa (1-192) (C49S, C129S).His (receptor)
chain: TPVSQTTTAATASVRSTKDPSPSQPPVFPAAKQCPALEVTWPEVEVPLNGTLSLSCVACSRFPNFSILYWLGNGSFIEHLPGRLWEGSTSRERGSTGTQLSKALVLEQLTPALHSTNFSCVLVDPEQVVQRHVVLAQLWAGLRATLPPTQEALPSSHSSPQQQGTGHHHHHHHH
B3: hIL18BPa (58-192) (C129S).His (receptor)
chain: AAKQCPALEVTWPEVEVPLNGTLSLSCVACSRFPNFSILYWLGNGSFIEHLPGRLWEGSTSRERGSTGTQLSKALVLEQLTPALHSTNFSCVLVDPEQVVQRHVVLAQLWAGLRATLPPTQEALPSSHSSPQQQGHHHHHHHH
B4: hIL18BPa (72-192).TG.hFc (Fc fusion)
chain: VEVPLNGTLSLSCVACSRFPNFSILYWLGNGSFIEHLPGRLWEGSTSRERGSTGTQLCKALVLEQLTPALHSTNFSCVLVDPEQVVQRHVVLAQLWAGLRATLPPTQEALPSSHSSPQQQGTG
notes: not shown: hFc (human Fc)

Experiments:
recombinant human IL-18 [1] = target: T1, recombinant human IL-18; test: cell-based or functional assay
recombinant human IL-18 [2] = target: T1, recombinant human IL-18; test: printed in the IC50 (M) column of Table 2 (HEK293/NFkB-luciferase hIL-18 inhibition bioassay, CHO transient supernatant)
Description: hIL-18 Inhibition. The HEK293/NFkB-luciferase bioassay is used to determine the ability of the IL-18-specific polypeptides of the invention to block the activity of human IL-18 (hIL-18). Human embryonic kidney 293, HEK293, cells, were transfected with an NFκB-luciferase reporter plasmid. By placing an NFκB promoter element upstream of the luciferase gene one can monitor NFκB activity in cells. Because IL-18 signaling is mediated by NFκB, when cells containing the 293/NFκB luciferase construct and the IL-18 receptors are stimulated with hIL-18, the luciferase gene is expressed and luciferase activity can be detected in cell lysates. A stable, transfected, cell line, HEK293/D9, was selected for good response to IL-1 as detected by luciferase activity. This line was transfected with the human IL-18Rα (IL-IRrp) and IL-18Rβ (IL1RAcPL) receptors and stable cell lines that responded to IL-18 with a strong luciferase signal were isolated. These cells are called hIL-18-NFκB-luciferase cells.
For the assay, hIL-18-NFκB-Luciferase cells were suspended at 1.25×10⁵ cells per ml in medium and 0.08 ml of cells plated (10,000 cells per well) into the wells of a 96 well tissue culture plate. […] Plates were incubated at room temperature for ˜10 minutes and then read on a Victor multilabel counter (Luminescence 1 sec/well).

Row | Binder | IC50 (M), HEK293/NFkB-luciferase bioassay (recombinant human IL-18 [1]) | binding result (recombinant human IL-18 [2])
1 | B1 | 1.23e-10 M | 
2 | B2 | 8.59e-11 M | 
3 | B3 | 3.9e-11 M | 
4 | B4 |  | no binding
